Results as given in paper doi:10.1101/329136.

How the values were obtained:
[1] = molecular target: talin VBS1 (H1-H4) residues 482-636 (UniProt Q9Y490); assay: ITC
[2] = molecular target: IpaA 483-633 containing all three VBS1-3 (A483) (Shigella flexneri) (UniProt P18010); assay: ITC
[3] = molecular target: IpaA 524-633 containing only IpaA VBS1-2 (A524) (Shigella flexneri) (UniProt P18010); assay: ITC
[4] = molecular target: IpaA 483-633 containing all three VBS1-3 (A483) (Shigella flexneri) (UniProt P18010); assay: SEC-MALS
[5] = molecular target: talin VBS1 (H1-H4) residues 482-636 (UniProt Q9Y490); assay: SEC-MALS

IpaA VTBS A495K peptide
Kd [1]: 2.93 µM

IpaA VTBS K498E peptide
Kd [1]: 0.3 µM

IpaA VTBS R489A K498A peptide
Kd [1]: 0.328 µM

IpaA VTBS peptide (488-512)
Kd [1]: 0.174 µM

IpaA-VBS1 peptide (611-633) (from UniProt P18010 611-633)
Kd [1]: 15.2 µM

Talin VBS46 peptide
Kd [1]: 0.06 µM

Talin VBS50 peptide
Kd [1]: 15 to 45 µM

talin VBS1 (H1-H4) residues 482-636 (from UniProt Q9Y490 482-636) (domain or fragment)
KD of the first, high affinity site [2]: 0.115 µM
KD of the second site [2]: 4.6 µM
Kd [3]: 2 µM
stoichiometry N (talin H1-H4 per A483) [4]: 2
stoichiometry N [5]: 2
